Source: patent US7196244

Assays:
[1] = target: T1, Mos1 transposase (Drosophila mauritiana) (UniProt Q7JQ07); assay: cell_activity; conditions: glh-2 promoter, C. elegans germline
T1 sequence: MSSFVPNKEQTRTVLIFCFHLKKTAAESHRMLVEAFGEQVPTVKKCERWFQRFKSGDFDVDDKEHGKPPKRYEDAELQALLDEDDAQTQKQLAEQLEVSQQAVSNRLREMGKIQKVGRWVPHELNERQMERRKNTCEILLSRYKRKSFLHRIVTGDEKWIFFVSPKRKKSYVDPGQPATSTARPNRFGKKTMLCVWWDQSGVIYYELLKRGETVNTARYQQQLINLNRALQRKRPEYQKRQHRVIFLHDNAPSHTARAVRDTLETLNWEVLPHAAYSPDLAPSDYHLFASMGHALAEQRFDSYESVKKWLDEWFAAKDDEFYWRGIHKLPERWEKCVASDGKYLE

[2] = test system: TC3A transposase (Caenorhabditis elegans); assay: cell_activity; conditions: ced-9 promoter; 0.1% with glh-2 promoter

With “Mos1 transposon in integrated array oxIs25” the activity (% chromosomes with catastrophic excision) [1] was 20.9.

Tc3 element in unc-22(r750::Tc3) showed an activity (% germline reversion) [2] of 2.
